The test system of one experiment is NmGT8 protein. In words: Enzyme reaction of flavone substrates with His-tag purified NmGT8 protein solution and UDP-glucose (HPLC). Type of experiment: biochemical, Nemophila menziesii. The following applies: reactivity to various flavonoid compounds of FIG. 11 and betanidine. Here is the method:
The transformed E. coli were cultured at 37° C. to an OD600 value of 0.5 in 8 ml of the prepared culture liquid (approx. 4 hours). This E. coli culture liquid was then used as a pre-culture liquid and added to 200 ml of culture liquid followed by final culturing overnight at 25° C.
Following final culturing overnight, the E. coli culture liquid was centrifuged (1000×g, 4° C., 10 minutes), the collected cells were suspended in 20 ml of extract (composition: buffer (KCl: 300 mM, KH2PO4: 50 mM, imidazole: 5 mm) (pH 8.0), amidinophenylmethanesulfonyl fluoride hydrochloride (APMSF): 10 μM), and after crushing the E. coli by ultrasonic treatment, the crushed cells were centrifuged (1400×g, 4° C., 20 minutes) followed by recovery of the supernatant. This supernatant was passed through a 0.45 μm filter and purified by His-Tag protein purification using Profinia (Bio-Rad Laboratories, Inc.) in accordance with the protocol recommended by the manufacturer. The resulting purified protein solution was centrifuged (7500×g, 4° C., 15 minutes) using centrifugal filters (Ultracel-10K, Amicon Corp.) and the concentrated protein solution was designated as “NmGT8 Protein Solution”. The Avanti HP-26XP (rotor: JA-2) (Beckman Coulter Inc.) was used for centrifugation.
A reaction liquid prepared by mixing 10 μl of protein solution, 2 μl of 50 mM UDP-glucose, 10 μl of 1 M Tris HCl (pH 7.5) and 5 μl of 1 mM apigenin on ice and bringing to a volume of 100 μl with water was held for 20 minutes at 30° C. Subsequently, 100 μl of stop buffer (90% aqueous acetonitrile solution containing 0.1% TFA) were added to stop the reaction followed by analyzing the reaction liquid by high-performance liquid chromatography (Prominence (Shimadzu Corp.)). The Shimadzu PDA SPD-M10AVP was used for the detector and flavone was detected at 330 nm. The Shim-Pack ODS 150 mm×4.6 mm column (Shimadzu Corp.) was used for the column. A Solution A (0.1% aqueous TFA solution) and a Solution B (90% aqueous methanol solution containing 0.1% TFA) were used for elution. Elution was carried out using a linear concentration gradient from an 8:2 mixture of the two solutions to a 3:7 mixture of the two solutions over the course of 10 minutes followed by a 3:7 mixture for 6 minutes. The flow rate was 0.6 ml/min.

For experiment [1], the system named is rose (Noblesse, Ritapa Humera). In words: Flower petal pigment analysis of recombinant rose introduced with NmGT8. It is filed as in vivo. The source says:
Binary vectors pSPB4577, pSBP4578, pSBP5437 and pSBP5440 for expressing NmGT8 were constructed and introduced into rose (Noblesse, Ritapa Humera). […] Details of the introduced constructs are described below (see FIG. 21).
pBINPLUS was used for the basic skeleton of pSPB5477, and three expression cassettes were contained therein (consisting of 1: EI235S promoter, full-length cDNA pansy F3′5′H and mas terminator; 2: EI235S promoter, full-length cDNA torenia flavone synthase and mas terminator; and, 3: EI235S promoter, full-length cDNA NmGT8 and mas terminator).
pBINPLUS was used for the basic skeleton of pSPB4578, and three expression cassettes were contained therein (consisting of 1: perilla anthocyanin 3-acyltransferase promoter (described in PCT/JP2010/053909), full-length cDNA pansy F3′5′H and mas terminator; 2: EI235S promoter, full-length cDNA torenia flavone synthase and mas terminator; and, 3: EI235S promoter, full-length cDNA NmGT8 and mas terminator). […]
Pigments in the flower petals were analyzed for full-length cDNA torenia flavone synthase and full-length cDNA NmGT8 in those strains in which transcription products were confirmed. […] The flower petal extract was analyzed by high-performance liquid chromatography (Prominence (Shimadzu Corp.)). […] Non-recombinant rose not introduced with the genes was analyzed in the same manner as a control (FIG. 22). Flower petal extract diluted 50-fold was also analyzed with a high-performance liquid chromatograph (Shimadzu Corp.). The Shimadzu LCMS-IF-TOF was used for the detector and flavones were detected at […] ([Api-Glc+H]) and […] ([Lut-Glc+H]). […]

Where [2] appears, read: recombinant rose flower petal extract, LC-MS.

B1: NmGT8: nemophila glycosyltransferase (SEQ ID NO: 1/2) having activity that transfers a sugar to the hydroxyl group at the 4′-position of a flavone (protein, listed as Nemophila menziesii)
chain: MEKKTIILYPSPGIGHLVSMVELAKLILNREPSYSIIIFISSAPYSTGSSAPYISHVSATTSGISFHHLPVLVLPPNTFSSFEEIAYKIPQLNNPNLKLALQTISKESSDLKAFIIDFFCTAAVEVSSNLEIPTYFFFTSGSSAMCQFLYLPTLHETITQKDLQDPNTYVHIPGIPPIHSLDLPKVLSNRSTVLYKELINTANQMAKCSGILINAFETLEPKAVKALKEGLCTPGMPTPPVYCIGPLIASGDKGNVNDAHGHEILTWLNSQPSKSVVFLCFGSLGTFKEDQLKEIAIGLENSGHRFLWVMKSPPIDDKTKRFLPPPEPDFNVLLPEGFLERTKERGVIVKSWAPQLAILNHDAIGGFVTHCGWNSVLEAICGGVPMLAWPLYAEQRVNRVCMVEEMKVALPLEESVDGFVMASEIEKRVKELVDYESSEAIRDQVKIMSEKAKTAVAVSGSSHDALTKLLDGWK
As to B1, the substrate specificity entry in the experiment on NmGT8 protein was “high substrate specificity and selectively glycosylate the 4′-position of flavones”. Further, in experiment [1] (setting [2]), the “flavone 4′-glucoside share of the biosynthesized flavones” value is listed as 97.0% and the “flavone 7-glucoside share of the biosynthesized flavones” value was determined as 3.0%. In addition, in experiment [1] (recombinant rose introduced with flavone synthase and NmGT8, HPLC), the “flavones detected in flower petals” value was “apigenin 4′-glucoside and luteolin 4′-glucoside were detected”.

These data come from patent US10059956B2, “Glycosyltransferase gene and use thereof” (SUNTORY HOLDINGS LIMITED, priority 2012, dated 2018).
